“Also recorded” adds a separate entry of the source.
Legend:
RIP1-Tag5 tumours [1] = experiment: Short term treatment of tumour-bearing RIP1-Tag5 mice, tumour histology; format: in vivo, mouse
Procedure: Short term treatment: commencing at 26-27 weeks of age mice were treated for 2 weeks with bi-weekly intravenous (i.v.) injections of recombinant proteins in 100 μl volume at 0.2 ng (equivalent to approximately […] body weight for a 30 g mouse) or 20 ng (equivalent to approximately […] body weight for a 30 g mouse) LIGHT or LIGHT-RGR. When indicated this was followed by one adoptive transfer of TagTCR8 (CD8+) T cells. Four days later, mice were sacrificed and tumours were isolated for histology. For adoptive transfer experiments, TagTCR8 lymph node cells were activated in vitro for 3 days, with 10 U of rIL-2/ml and 25 nM Tag peptide […] (SEFLIEKRI). 2.5×10^6 activated CD8^+ T cells were injected i.v once. The short term treatment regimen is shown schematically in FIG. 1
(§1) Mice were perfused with 2% neutral-buffered formalin before removal of tumours. Tumours were incubated in 10% (2 h) and 30% sucrose overnight and embedded in OCT compound. For immunohistochemistry the following antibodies were used: anti B220 (BD Pharmingen), anti-CD8 (Ly-2, BD Pharmingen), anti-CD31 (Mec 13.3., BD Pharmingen), anti-ICAM2 (3C4, BD Pharmigen), anti-CD45 (30-F11, BD Pharmingen), anti-CD68 (FA-11, BD Biosciences), anti-calponin (rabbit monoclonal EP798Y, Abcam), anti-caldesmon (rabbit monoclonal E89, Abcam), anti-collagen I or collagen IV (rabbit polyclonal, Abcam), Ki67 (PP67, Abcam), MECA79 (American type tissue culture, ATCC) and αSMA (1A4, Sigma). For secondary detection, AMCA (7-Amino-4-methylcoumarin-3-acetic acid), Cy-3 or FITC-conjugated IgG F(ab′)2 fragments (Jackson Immuno Research) were used. The αSMA staining was amplified using the mouse on mouse (M.O.M.) kit (Vector). For lectin perfusion, mice were i.v. injected with 50 μg of FITC-labelled tomato lectin (Lycopersicon esculentum, Vector). After 10 min of circulation, mice were heart-perfused with 2% neutral-buffered formalin and tumours frozen in OCT. To evaluate vessel leakiness, 1 mg of 70 kDa Texas Red Dextran (Invitrogen) was injected i.v. and allowed to circulate for 10 min. Mice were heart-perfused with PBS followed by 2% neutral buffered formalin and tumours frozen in OCT. Apoptosis was assessed using TUNEL staining (Roche). Images were recorded on a Nikon Ti-E microscope and quantified using NIS software modules (version 3.0).
To study the complex interrelationship between tumour, tumour vessels and the immune system, the inventors' analyses focused on a transgenic mouse model which develops spontaneous tumours that mimic the clinical scenario with regard to native anatomical location, slow growth kinetics, and multistep tumour progression. In RIP1-Tag5 mice, the oncogene SV40 Large T antigen (Tag; RIP, rat insulin gene promoter) is exclusively expressed in β cells of the pancreas leading to stepwise tumour development through well-characterized stages progressing from hyperplastic islets, to the initiation of Tag expression at approximately 10 weeks, the onset of blood vessel formation in angiogenic islets (termed “angiogenic switch”) at approximately 16 weeks and then to highly vascularised solid tumours at approximately 22 weeks, followed by death at approximately 30 weeks.

pericyte cell line = experiment: Calponin/caldesmin expression in pericyte cell line in vitro; format: cell-based; details: direct LIGHT induction; data not shown
4T1 breast cancer = experiment: Breast tumour model, orthotopic 4T1 in Balb/c mice, tumour histology; format: in vivo, mouse
Procedure: Murine breast cancer cells (5×10^6, 4T1 from ATCC) were injected orthotopically into the mammary fat pad of Balb/c mice. […] Mice were injected with pimonidazole (hypoxia marker) and FITC-labelled lectin. After 1 h/10 min (pimonidazole/lectin, respectively) circulation, mice were perfused with 2% formalin and tumors dissected and fresh frozen in OCT compound. Tumours were analyzed by histology for vessel frequency (CD31), quality of vessel perfusion (CD31 plus lectin-FITC), caldesmon induction and frequency of intratumoral hypoxia (pimonidazole staining).
Murine breast cancer cells (5×10^6, 4T1 from ATCC) were injected orthotopically into the mammary fat pad of Balb/c mice. […] Mice were injected with pimonidazole (hypoxia marker) and FITC-labelled lectin. After 1 h/10 min (pimonidazole/lectin, respectively) circulation, mice were perfused with 2% formalin and tumors dissected and fresh frozen in OCT compound. Tumours were analyzed by histology for vessel frequency (CD31), quality of vessel perfusion (CD31 plus lectin-FITC), caldesmon (contractile pericyte marker) induction and frequency of intratumoral hypoxia (pimonidazole staining).

[2] = system: tumour resident macrophages; experiment: TGFβ secretion of ex vivo purified tumour resident macrophages (ELISA); format: cell-based, mouse; details: macrophages from treated tumours; data not shown
RIP1-Tag5 tumours [3] = experiment: Short term treatment of tumour-bearing RIP1-Tag5 mice, tumour histology; format: in vivo, mouse; details: 2 μg; regimen not stated
stromal cells = experiment: CCL21 secretion by stromal cells
RIP1-Tag5 tumours [4] = experiment: Long term treatment and survival studies in RIP1-Tag5 mice; format: in vivo, mouse
Procedure: 22 week-old RIP1-Tag5 mice were treated with bi-weekly i.v. injections of recombinant proteins as described for short term regimens for a total of 8 weeks and survival/tumour burden analysed at the set endpoint of 30 weeks. For adoptive transfer experiments, 2.5×10^6 activated TagTCR8 CD8^+ T cells were injected i.v twice (at week 4 and week 6). In adoptive transfer experiments (without LIGHT-RGR), mice received two adoptive transfers only. Chemotherapy: 22 week-old mice were treated with i.v. injections of 0.2 ng LIGHT-RGR bi-weekly over a period of 8 weeks and were simultaneously provided with […] cyclophosphamide (metronomic low dose) in drinking water throughout the experiment. The long term treatment regimen is shown schematically in FIG. 2. In addition, mice were treated with cyclophosphamide and/or LIGHT-RGR and survival monitored (death as endpoint).
For vaccination, mice were primed with one subcutaneous injection (tail base) of 50 μg recombinant Tag protein mixed with 50 μg Freund's adjuvant (Sigma). […] For combination therapies with checkpoint blockade, RIP1-Tag5 mice were treated with LIGHT-RGR (20 ng, iv, biweekly) in combination with anti-PD1 ([…].) and anti-CTLA4 ([…].) antibodies (BioXCell). In addition, mice were treated with triple combination of LIGHT-RGR/anti-PD1+anti CTL4/anti-Tag vaccine.
as §1
Cumulative survival time was calculated by the Kaplan-Meier method and analyzed by the log-rank test. Student's t test (2-tailed) was used unless indicated otherwise. A P value of less than 0.05 was considered statistically significant. Error bars indicate SD unless stated otherwise.
To study the complex interrelationship between tumour, tumour vessels and the immune system, the inventors' analyses focused on a transgenic mouse model which develops spontaneous tumours that mimic the clinical scenario with regard to native anatomical location, slow growth kinetics, and multistep tumour progression.

[5] = 0.2 ng i.v. bi-weekly for 2 weeks
[6] = 20 ng i.v. bi-weekly for 2 weeks

B1: LIGHT (protein, listed as Mus musculus)
chain: MESVVQPSVFVVDGQTDIPFRRLEQNHRRRRCGTVQVSLALVLLLGAGLATQGWFLLRLHQRLGDIVAHLPDGGKGSWEKLIQDQRSHQANPAAHLTGANASLIGIGGPLLWETRLGLAFLRGLTYHDGALVTMEPGYYYVYSKVQLSGVGCPQGLANGLPITHGLYKRTSRYPKELELLVSRRSPCGRANSSRVWWDSSFLGGVVHLEAGEEVVVRVPGNRLVRPRDGTRSYFGAFMV
vessel leakiness (extravasation of 70 kDa dextran) (RIP1-Tag5 tumours [1]; 0.2 ng, 2 week treatment): leaky phenotype | calponin/caldesmin induction in pericyte cells (pericyte cell line): not induced

B2: LIGHT-RGR (protein)
chain: MESVVQPSVFVVDGQTDIPFRRLEQNHRRRRCGTVQVSLALVLLLGAGLATQGWFLLRLHQRLGDIVAHLPDGGKGSWEKLIQDQRSHQANPAAHLTGANASLIGIGGPLLWETRLGLAFLRGLTYHDGALVTMEPGYYYVYSKVQLSGVGCPQGLANGLPITHGLYKRTSRYPKELELLVSRRSPCGRANSSRVWWDSSFLGGVVHLEAGEEVVVRVPGNRLVRPRDGTRSYFGAFMVGGGCRGRRSTG
vessel normalization as shown for RIP1-Tag5 mice (4T1 breast cancer; 20 ng): reproduced all aspects of vessel normalization | vessel normalization (4T1 breast cancer; 20 ng i.v. bi-weekly for 2 weeks, 4T1): induces vessel normalization | contractile markers in pericytes (caldesmon) (4T1 breast cancer; 20 ng, 4T1): induced contractile markers in pericytes | overall vascularity (CD31+ vessels) (4T1 breast cancer; 20 ng, 4T1): without change in overall vascularity | tumour hypoxia (pimonidazole) (4T1 breast cancer; 20 ng, 4T1): reduced tumour hypoxia; also recorded: reduces tumor hypoxia | vessel calibers (4T1 breast cancer; 20 ng, 4T1): reduced vessel calibers | vessel perfusion (FITC-lectin) (4T1 breast cancer; 20 ng, 4T1): increases vessel perfusion | binding affinity to tumor vessels relative to RIP1-Tag5 (4T1 breast cancer; breast cancer model): lower binding affinity to tumor vessels | dose required to recapitulate the vessel phenotype of RIP1-Tag5 mice treated with 0.2 ng (4T1 breast cancer; breast cancer model): 20 ng | TGFβ secretion by tumour macrophages [2]: stimulates macrophages in the tumour environment to secrete TGFβ | effect on vessels in RIP1-Tag5 mice (RIP1-Tag5 tumours [3]): caused vessel death | CCL21 secretion by stromal cells (stromal cells): stimulates stromal cells to secrete CCL21 | survival of RIP1-Tag5 mice at week 30 (RIP1-Tag5 tumours [4]; 0.2 ng LIGHT-RGR combined with adoptive T cell transfer): approximately 70% | survival over vaccination alone or vaccination with LIGHT (RIP1-Tag5 tumours [4]; 0.2 ng in combination with anti-Tag vaccination): substantially increased survival | inflammatory response at tumour site / tumour appearance (RIP1-Tag5 tumours [4]; 0.2 ng long term in combination with adoptive transfer of anti-Tag lymphocytes): substantial inflammatory response at the tumour site and pale | tumour size / tumour burden (RIP1-Tag5 tumours [4]; 0.2 ng plus cyclophosphamide, 8 weeks): shift from large tumours to smaller tumours | apoptotic tumour cells (TUNEL), compared to each treatment alone (RIP1-Tag5 tumours [4]; 0.2 ng plus low dose metronomic cyclophosphamide in drinking water, 8 weeks): significant increase in apoptotic tumour cells | survival compared to controls (RIP1-Tag5 tumours [4]; 20 ng LIGHT-RGR with anti-PD-1 (250 μg) and anti-CTLA4 (75 μg) antibodies, week 23 to 45): significantly increased survival | survival at 45 weeks of age (RIP1-Tag5 tumours [4]; 20 ng LIGHT-RGR with tumour specific (anti-Tag) vaccine): 30% | RIP1-Tag5 mice alive at 45 weeks (RIP1-Tag5 tumours [4]; 20 ng LIGHT-RGR+vaccine+anti-PD-1+anti-CTLA4): 70% | tumour cell apoptosis (TUNEL) (RIP1-Tag5 tumours [4]; 20 ng, long term): increase in tumour cell apoptosis | tumour cell content (Dapi, H&E) (RIP1-Tag5 tumours [4]; 20 ng, long term): substantial reduction of tumour cells | tumour necrosis at 30 weeks (RIP1-Tag5 tumours [4]; 20 ng, long term): highly necrotic | survival compared to either treatment alone (RIP1-Tag5 tumours [4]; LIGHT-RGR in combination with cyclophosphamide from week 22): significant increased survival | survival of RIP1-Tag5 mice at week 30 (RIP1-Tag5 tumours [4]; single treatments, LIGHT-RGR 0.2 ng, treated from week 22): approximately 30% | collagen IV alignment / stromal Col IV (RIP1-Tag5 tumours [1]; [5]): close vessel alignment of collagen IV; also recorded: decreased stromal Col IV | pericyte attachment to vessels (αSMA+ pericytes) (RIP1-Tag5 tumours [1]; [5]): firm attachment of pericytes to vessels; also recorded: significantly decreased the protrusion of αSMA+ pericytes from the vasculature | normalization of tumour vessels (histology) (RIP1-Tag5 tumours [1]; 0.2 ng i.v. bi-weekly for 2 weeks (four injections), RIP1-Tag5 mice): normalized chaotic tumour vessels | total vessel counts / CD31 surface area (RIP1-Tag5 tumours [1]; 0.2 ng i.v. bi-weekly for 2 weeks, CD31 vessel marker): without affecting total vessel counts; also recorded: total surface area of CD31 remained intact | tumour vessel caliber (RIP1-Tag5 tumours [1]; 0.2 ng i.v. bi-weekly for 2 weeks, small <30 μm, larger 150-200 μm): shift from large to small caliber tumour vessels; also recorded: significant increase in small vessels | T cell infiltration, compared to either treatment on their own (RIP1-Tag5 tumours [1]; 0.2 ng in combination with adoptive transfer of in vitro activated CD8+ T cells): significantly improves T cell infiltration | tumour perfusion (FITC-lectin staining of vessels) (RIP1-Tag5 tumours [1]; 0.2 ng, 2 week treatment): indicative of adequate perfusion; also recorded: increased tumour perfusion | vessel leakiness (extravasation of 70 kDa dextran) (RIP1-Tag5 tumours [1]; 0.2 ng, 2 week treatment): less leaky phenotype; also recorded: reduced vascular leakiness | CD8+ T cell infiltration (RIP1-Tag5 tumours [1]; 0.2 ng, short term): enhance CD8+ T cell infiltration | ICAM-1 expression on tumour endothelial cells (RIP1-Tag5 tumours [1]; 0.2 ng, short term): increases expression of the inflammatory adhesion molecule ICAM-1 | expression of collagen I in normalized vessels (RIP1-Tag5 tumours [1]; 0.2 ng, short term): significantly down regulated | expression of contractile markers calponin and caldesmon in αSMA-positive tumour pericytes (RIP1-Tag5 tumours [1]; 0.2 ng, short term): significant increase in expression; also recorded: significantly up regulated | function of vessels within the tumour (RIP1-Tag5 tumours [1]; 0.2 ng, short term): improved the function of vessels within the tumour | formation of ectopic lymph node structures associated with HEVs (MECA79) (RIP1-Tag5 tumours [1]; [6]): induced the formation of ectopic lymph node structures | tumours with HEV structures (RIP1-Tag5 tumours [1]; [6]): 60-75% | immune cell infiltration of intratumoural areas surrounding HEVs (RIP1-Tag5 tumours [1]; 20 ng, short term): heavily infiltrated with T cells and B cells | efficacy (total tumour burden by weight) (RIP1-Tag5 tumours [1]; two week, 20 ng LIGHT-RGR with anti-PD-1/anti-CTLA4 double treatment versus single antibodies): superior to single treatment
